According to patent US20100129369A1 (Eli Lilly, published 2010):

Assays:
RON-ECD-Fc = target: T1, RON-ECD-Fc (human, UniProt Q04912 25-957); assay: ELISA, coated ECD-Fc, antibody 12.860 ng/mL
T1 construct: extracellular domain; Bought reagent; not shown: Fc part of the bought fusion
T1 sequence (looked up): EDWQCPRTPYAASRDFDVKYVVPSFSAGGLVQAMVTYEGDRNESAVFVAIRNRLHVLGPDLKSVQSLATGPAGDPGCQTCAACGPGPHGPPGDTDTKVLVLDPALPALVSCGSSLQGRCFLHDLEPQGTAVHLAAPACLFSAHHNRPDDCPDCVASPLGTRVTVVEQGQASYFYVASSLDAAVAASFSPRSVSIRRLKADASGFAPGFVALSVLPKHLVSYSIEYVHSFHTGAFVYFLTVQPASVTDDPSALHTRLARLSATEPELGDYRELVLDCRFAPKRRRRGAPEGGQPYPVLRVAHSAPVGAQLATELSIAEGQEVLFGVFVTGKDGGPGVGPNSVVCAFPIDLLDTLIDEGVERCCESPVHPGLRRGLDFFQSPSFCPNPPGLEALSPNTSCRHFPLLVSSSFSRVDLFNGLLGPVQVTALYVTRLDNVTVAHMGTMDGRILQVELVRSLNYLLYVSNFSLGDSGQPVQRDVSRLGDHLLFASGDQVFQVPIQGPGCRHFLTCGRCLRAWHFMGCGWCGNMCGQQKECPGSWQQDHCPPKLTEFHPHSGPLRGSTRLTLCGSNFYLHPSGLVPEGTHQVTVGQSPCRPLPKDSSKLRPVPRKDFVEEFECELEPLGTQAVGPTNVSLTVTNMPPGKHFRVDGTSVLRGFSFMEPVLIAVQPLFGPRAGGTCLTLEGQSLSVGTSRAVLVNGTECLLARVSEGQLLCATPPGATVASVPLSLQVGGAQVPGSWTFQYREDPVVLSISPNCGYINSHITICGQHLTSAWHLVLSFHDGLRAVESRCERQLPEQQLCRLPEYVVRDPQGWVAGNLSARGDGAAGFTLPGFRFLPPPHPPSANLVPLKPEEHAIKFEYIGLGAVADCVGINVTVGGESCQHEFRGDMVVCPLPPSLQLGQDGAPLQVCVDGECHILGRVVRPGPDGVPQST
Procedure: Wells of 96-well EIA/RIA high binding plates (Costar, #2592) are coated with 100 μL of 1 μg/mL human c-Met extracellular domain (ECD)-Fc-Flis fusion (SEQ ID NO:72), RON-ECD-Fc (R&D Systems, #1947-MS), or PlexinA2-ECD-Fc (Abnova, Taipei, Taiwan #H00005362-P01) in coating buffer (BioFX Labs, # COAT-1000-01) overnight at 4° C. […] After the plates are washed, 100 μL/well of substrate solution (BioFx, #TMBW-1000-01) are added and the plates are incubated for 10 min. at room temperature. 100 μL/well of stop solution (BioFx, # LSTP-1000-01) are added to stop the reaction. The colorimetric signals are developed and read at 450 nm using a SpectraMax 190 plate reader (Molecular Devices, Sunnyvale, Calif.). c-Met antibody binding to c-Met, RON and PlexinA2 ECDs is proportional to color signal production.

Human c-Met-Flis-Fc ECD = target: T2, Human c-Met-Flis-Fc ECD (human); assay: SPR Biacore, antibody captured, ECD-Fc analyte, 1:1 model
T2 construct: also called human c-Met extracellular domain (ECD)-Fc-Flis fusion; Human cMet-ECD-Fc-Flis
T2 sequence (chain, as listed by the source limits assumed): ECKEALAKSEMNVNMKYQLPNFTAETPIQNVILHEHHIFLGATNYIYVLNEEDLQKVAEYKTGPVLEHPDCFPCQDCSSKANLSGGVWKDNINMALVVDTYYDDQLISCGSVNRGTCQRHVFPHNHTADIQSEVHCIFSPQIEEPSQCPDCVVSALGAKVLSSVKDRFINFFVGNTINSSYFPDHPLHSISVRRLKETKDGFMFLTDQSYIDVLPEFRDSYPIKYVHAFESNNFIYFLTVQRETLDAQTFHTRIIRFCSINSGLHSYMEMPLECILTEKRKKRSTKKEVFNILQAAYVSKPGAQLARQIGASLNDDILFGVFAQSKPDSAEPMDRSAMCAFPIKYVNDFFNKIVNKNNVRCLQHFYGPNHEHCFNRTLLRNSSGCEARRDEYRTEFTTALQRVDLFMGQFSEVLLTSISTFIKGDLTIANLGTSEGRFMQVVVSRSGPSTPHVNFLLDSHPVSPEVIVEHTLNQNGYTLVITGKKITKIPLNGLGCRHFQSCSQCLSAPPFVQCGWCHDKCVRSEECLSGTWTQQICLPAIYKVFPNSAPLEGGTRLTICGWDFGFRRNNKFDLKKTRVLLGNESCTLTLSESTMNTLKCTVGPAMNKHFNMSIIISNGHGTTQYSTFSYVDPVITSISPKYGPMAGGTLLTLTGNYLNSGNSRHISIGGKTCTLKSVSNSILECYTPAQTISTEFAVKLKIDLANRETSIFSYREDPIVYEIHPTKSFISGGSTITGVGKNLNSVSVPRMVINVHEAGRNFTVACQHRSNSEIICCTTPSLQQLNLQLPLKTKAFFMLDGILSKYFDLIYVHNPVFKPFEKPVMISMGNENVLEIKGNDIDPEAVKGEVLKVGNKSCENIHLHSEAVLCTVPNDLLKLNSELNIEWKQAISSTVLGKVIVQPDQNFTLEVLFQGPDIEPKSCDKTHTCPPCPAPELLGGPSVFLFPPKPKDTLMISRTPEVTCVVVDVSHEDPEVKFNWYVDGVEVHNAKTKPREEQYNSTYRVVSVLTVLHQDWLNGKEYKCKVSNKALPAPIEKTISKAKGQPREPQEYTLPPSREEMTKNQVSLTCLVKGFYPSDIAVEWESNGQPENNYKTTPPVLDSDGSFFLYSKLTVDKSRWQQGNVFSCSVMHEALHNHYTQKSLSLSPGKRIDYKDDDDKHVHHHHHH
Procedure: (§1) A Biacore® 2000 instrument is used to measure the binding kinetics of c-Met antibodies to human, cynomolgus monkey, and rat c-Met ECDs. Measurements are performed at 25° C. Samples are dissolved in HBS-EP buffer (150 mM sodium chloride, 3 mM EDTA, 0.005% (w/v) surfactant P-20, and 10 mM N-2-hydroxyethylpiperazine-N′-2-ethanesulfonic acid (HEPES) at pH 7.4; #BR-1001-88).
(§2) Binding is evaluated using multiple cycles. Each cycle is performed at a flow rate of 50 μL/min., and consists of the following steps: injection of about 10 μL of a c-Met antibody at 10 μg/mL aiming at a capture of 40-100 RUs, injection of 250 μL of human, cynomolgus, or rat c-Met-Flis-Fc ECD (starting at 100 nM and using two-fold serial dilutions for each cycle) followed by 20 min. for dissociation, and regeneration using about 30 μL of 10 mM glycine hydrochloride, pH 1.5. Association and dissociation rates for each cycle are evaluated using a “1:1 (Langmuir) binding” model in the BIAevaluation software, version 4.1.

[1] = target: T3, Cynomolgus Monkey c-Met-Flis-Fc ECD (cynomolgus monkey); assay: as above
T3 construct: also called Cynomolgus Monkey cMet-ECD-Fc-Flis; cynomolgus monkey c-Met ECD
T3 sequence (chain, as listed by the source limits assumed): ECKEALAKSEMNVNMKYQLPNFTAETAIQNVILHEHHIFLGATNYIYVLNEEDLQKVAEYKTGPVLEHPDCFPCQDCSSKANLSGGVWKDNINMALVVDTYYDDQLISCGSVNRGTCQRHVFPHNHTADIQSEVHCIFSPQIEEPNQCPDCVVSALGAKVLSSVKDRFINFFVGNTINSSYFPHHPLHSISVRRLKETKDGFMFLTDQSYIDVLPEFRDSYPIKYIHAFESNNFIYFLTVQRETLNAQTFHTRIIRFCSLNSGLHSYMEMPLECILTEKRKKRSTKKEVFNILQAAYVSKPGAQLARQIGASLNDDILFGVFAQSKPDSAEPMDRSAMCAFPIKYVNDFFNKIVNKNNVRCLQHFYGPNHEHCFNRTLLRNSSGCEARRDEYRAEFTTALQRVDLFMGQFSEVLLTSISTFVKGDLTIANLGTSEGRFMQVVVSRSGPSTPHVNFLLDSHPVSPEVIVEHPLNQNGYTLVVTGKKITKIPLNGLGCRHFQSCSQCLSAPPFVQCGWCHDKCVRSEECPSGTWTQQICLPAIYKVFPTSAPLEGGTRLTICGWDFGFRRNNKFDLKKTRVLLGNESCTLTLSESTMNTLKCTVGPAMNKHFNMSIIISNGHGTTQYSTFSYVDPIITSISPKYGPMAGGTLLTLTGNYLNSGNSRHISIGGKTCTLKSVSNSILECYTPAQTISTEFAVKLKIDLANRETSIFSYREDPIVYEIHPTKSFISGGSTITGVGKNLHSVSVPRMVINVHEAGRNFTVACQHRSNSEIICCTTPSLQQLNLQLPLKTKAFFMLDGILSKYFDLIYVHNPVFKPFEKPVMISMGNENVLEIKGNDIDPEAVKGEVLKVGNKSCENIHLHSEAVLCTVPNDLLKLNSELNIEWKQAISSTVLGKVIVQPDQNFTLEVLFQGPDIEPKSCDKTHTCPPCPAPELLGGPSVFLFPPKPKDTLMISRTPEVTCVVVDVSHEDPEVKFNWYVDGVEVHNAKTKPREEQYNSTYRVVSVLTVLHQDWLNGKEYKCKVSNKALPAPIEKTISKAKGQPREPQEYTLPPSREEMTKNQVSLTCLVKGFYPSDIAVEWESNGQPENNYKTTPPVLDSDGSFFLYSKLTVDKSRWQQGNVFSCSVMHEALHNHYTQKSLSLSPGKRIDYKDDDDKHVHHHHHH
Procedure: as §1, §2

B1: C8-6 (antibody, human IgG2, kappa, V domains shown)
VH: QVQLVQSGAEVKKPGASVKVSCKASGYTFTDYYMHWVRQAPGQGLEWMGRVNPNRGGTTYNQKFEGRVTMTTDTSTSTAYMELRSLRSDDTAVYYCARTNWLDYWGQGTTVTVSS
VL: DIQMTQSPSSLSASVGDRVTITCSVSSSVSSIYLHWYQQKPGKAPKLLIYSTSNLASGVPSRFSGSGSGTDFTLTISSLQPEDFATYYCIQYSGYPLTFGGGTKVEIKR
notes: Called IgG4, kappa; also called Mab C8-6
Average A450 nm (RON-ECD-Fc): 0.087 A450 nm
Kd (Human c-Met-Flis-Fc ECD): 4 nM
koff (Human c-Met-Flis-Fc ECD): 0.0003 s⁻¹
kon (Human c-Met-Flis-Fc ECD): 160000 M⁻¹ s⁻¹
Kd [1]: 3.6 nM
koff [1]: 0.00045 s⁻¹
kon [1]: 140000 M⁻¹ s⁻¹
